Test results: publication PMC9636275 (Nature Communications, 2022)
Numbering of substitutions follows the chain as printed. Numbers in names are those of the source. Where two headings read alike, the source gives them in different places.

Columns and labels:
[1] = target: T1, YiaC (Escherichia coli, UniProt P37664); assay: Isothermal titration calorimetry (MicroCal PEAQ-ITC) with acyl-CoA (750 uM in syringe) titrated into YiaC (75 uM in cell) at 25.1 °C according to the data sheet; the methods text gives 500 uM, 50 uM and 37 °C.; format: binding; details: n = 3
T1 construct: recombinant, pET28a vector, expressed in E. coli BL21 (λDE3), purified on HisPur Ni-NTA resin
T1 sequence (P37664 whole entry): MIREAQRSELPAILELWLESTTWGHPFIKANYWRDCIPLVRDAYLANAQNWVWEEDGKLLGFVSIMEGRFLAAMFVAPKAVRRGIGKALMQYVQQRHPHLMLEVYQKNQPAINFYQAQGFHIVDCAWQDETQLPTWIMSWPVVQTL
Procedure: (§1) This method was described previously. […] The volume of the first injection was 0.5 μl of 500 μM actyl-CoA (or actylated peptides), and the following 18 injections were 2.0 μl. The binding isotherm was fit with the Origin 8.0 software (OriginLab). Each group had three biological repetitions.

[2] = target: T2, CobB (Escherichia coli, UniProt P75960); details: 10 mM NAM, 37 °C, 2 h; result in words
T2 sequence (P75960 1-279): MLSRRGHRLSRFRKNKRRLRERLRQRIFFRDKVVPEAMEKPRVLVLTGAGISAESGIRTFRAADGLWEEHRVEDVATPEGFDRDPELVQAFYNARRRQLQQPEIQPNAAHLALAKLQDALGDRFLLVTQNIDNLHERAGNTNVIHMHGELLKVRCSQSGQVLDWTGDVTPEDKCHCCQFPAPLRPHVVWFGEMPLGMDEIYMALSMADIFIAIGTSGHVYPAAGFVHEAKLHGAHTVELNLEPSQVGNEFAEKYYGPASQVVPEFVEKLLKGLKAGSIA

[3] = target: YiaC; assay: ITC affinity of recombinant YiaC with acyl-CoA; format: binding, E. coli; details: for Kd: cell 50 μM YiaC titrated with 500 μM acyl-CoA, 37 °C (method), three biological repetitions; for binding (Bin): result in words
Procedure: as §1

[4] = test system: whole-cell lysates; assay: Whole-cell lysate reaction, lactate to La-CoA; design: species or system E. coli MG1655; details: result in words
Procedure: This method was described previously. In detail, E. coli MG1655 was cultured in LB medium at 37 °C in shaken flasks overnight and harvested the cells by centrifugation, then added lysate buffer [[…], […] and 5 mM MgCl2, PH 7.0] and broke cells by ultrasound on ice, the supernatant was extracted by high-speed centrifugation as the whole protein lysate. Then measured protein concentration by BCA and adjusted the protein concentration to 2 mg/ml. […] Each reaction was performed three biological repetitions.
(§2) Samples dissolved in water were analyzed by an Orbitrap Exploris 480 (Thermo Scientific) mass spectrometer in positive ESI mode using the settings described previously[65],[66]. […] An Orbitrap Exploris 480 (Thermo Fisher Scientific) was employed for MS analysis. Spray voltage was set to 3.5 kV, funnel RF level at 40, and ion transfer tube temperature at 320 °C. Data were collected by Xcalibur (v.4.0.27.19). The orbitrap mass analyzer was used as the MS1 detector with 120,000 resolution. The normalized AGC target and maximum injection time were set at 70% /standard for MS1. The MS2 detector was used 15,000 resolution. Targeted mass setting is lactyl-CoA: 840.1436, acetyl-CoA: 810.1330 and propionate CoA: 824.1487. […] The relative intensity of acyl-CoA was analyzed by Xcalibur (v.4.0.27.19).

[5] = test system: E. coli MG1655; assay: Growth curve; format: cell-based; details: 37 °C, result in words
Procedure: As previous described, the strains were cultured in LB medium overnight, then diluted 1:1000 in LB or M9 medium (with 1% glucose or 1% pyruvate) and incubated at 37 °C with 96-well plates, and each strain was added to three wells. The absorbance at 600 nm at initiation was set as a blank and measured every hour using a spectrophotometer. All the growth dynamic curves were drawn using Origin 8.0.

[6] = test system: PykF; details: in vitro; result in words
[7] = test system: PykF; details: for Relative activity of PykF: intracellular; for intracellular PykF activity: result in words
[8] = test system: PncB; assay: In vitro assay for PncB activity; format: biochemical, E. coli; details: for enzymatic activity vs wild type: in vitro, result in words
Procedure: The activity of purified PncB, PncB^K381Q, and PncB^K381R were measured as described. In detail, the purified proteins were added in the reaction buffer [50 mM Tris-HCl, 10 mM MgCl2, 2.5 mM dithiothreitol, 1 mM ATP, […] of bovine serum albumin, 1 mM nicotinic acid and 1 mM 5-phosphoribosyl-1-pyrophosphate (pH 7.5)] at 37 °C for 2 h. The reactions were measured by HPLC-MS/MS to detect the production of […]. Separation was performed on a Vanquish UHPLC system (Thermo Fisher Scientific) with an ACQUITY UPLC BEH C18 column (100 × 2.1 mm, 1.7 μm). Mobile phase A was 0.1% formic acid in water. Mobile phase B was 0.1% formic acid in methanol. […] Injection volume was 2 μl. Nicotinic acid detection was performed on an Orbitrap Exploris 480 spectrometer (Thermo Fisher Scientific, Bremen, Germany) operated with ESI probe. Data were acquired under the following parameters: sheath gas ((N2), 35 Arb; aux gas (N2), 10 Arb; spray voltage, 3500 V (positive mode); and in transfer tube temperature, 320 °C. An SIM was applied for data acquisition.

[9] = test system: Acs; assay: In vitro assay for Acs activity; format: biochemical, E. coli; details: result in words
Procedure: This method was performed as described previously. In detail, the purified Acs or PrpE with a final concentration of 0.3 μM were added in the reaction buffer [50 mM HEPES, 10 mM MgCl2, 2.5 mM ATP, 0.5 mM HSCoA, 3 mM phosphoenolpyruvate, 0.1 mM NADH, 1 U pyruvate kinase, 1.5 U lactate dehydrogenase, 5 U myokinase, 10 mM DTT, and 0.2 mM organic acid substrate (acetate, lactate and propionate), PH 7.5] at 25 °C for 30 min. […] Each reaction was performed three biological repetitions.
as §2

[10] = Fig. 6e, LB medium 37 °C, replicate 1
[11] = Fig. 6e, LB medium 37 °C, replicate 2
[12] = Fig. 6e, LB medium 37 °C, replicate 3
[13] = Fig. 6g, M9 with 1% glucose, replicate 2
[14] = Fig. 6g, M9 with 1% glucose, replicate 3
[15] = replicate 1, 37 °C, 2 h, HPLC-MS/MS

With `CC(=O)SCCNC(=O)CCNC(=O)[C@H](O)C(C)(C)COP(=O)(O)OP(=O)(O)OC[C@H]1O[C@@H](n2cnc3c(N)ncnc32)[C@H](O)[C@@H]1OP(=O)(O)O` [acetyl-CoA, acetyl coenzyme A] the Kd [1] was 5.57 µM.

In the case of `NC(=O)c1cccnc1` [NAM, nicotinamide, reference compound], the “inhibition of CobB delactylation” value [2] is reported as “the delactylation reaction could be inhibited by nicotinamide (NAM)” and the “inhibition, deacetylation compared with delactylation” value [2] is reported as “more effective for deacetylation than delactylation”.

`CC(O)C(=O)SCCNC(=O)CCNC(=O)[C@H](O)C(C)(C)COP(=O)(O)OP(=O)(O)OC[C@H]1O[C@@H](n2cnc3c(N)ncnc32)[C@H](O)[C@@H]1OP(=O)(O)O` (stereo partly drawn) [lactyl-CoA, lactyl-coenzyme A] was tested, and the Kd [3] was 6.83 µM, the “binding (Bin)” value [3] was “strong binding” and the “binding (Bin)” value ([3]; listed as laCoA) was “Binding”. The Kd [1] was 6.83 µM and the “conversion to lactyl-CoA / lactyl-CoA level” value [4] was “low level”.

For “Succinyl coenzyme A [succinyl-CoA, reference compound]”, the “binding (Bin)” value [3] was “no binding”.

In the case of `CC(O)C(=O)O` (stereo not drawn) [lactate, reference compound], the “conversion to lactyl-CoA / lactyl-CoA level” value [4] is reported as “could be effectively converted to lactyl-CoA”.

In the case of “PykF^K382R: PykF mutant, unmodified K mimic; pPykF^K382R = overexpressing strain”, the growth ([5]; LB medium) is reported as “fastest growth”, the growth ([5]; M9 with 1% glucose) is reported as “grew fastest” and the “enzymatic activity vs wild type” value [6] is reported as “increased”. The “Relative activity of PykF” value [7, 10] was 1.38, the “Relative activity of PykF” value [7, 11] was 1.06 and the “Relative activity of PykF” value [7, 12] was 1.54. The “Relative activity of PykF” value ([7]; Fig. 6g, M9 with 1% glucose, replicate 1) was 1.27, the “Relative activity of PykF” value [7, 13] was 1.36 and the “Relative activity of PykF” value [7, 14] was 1.3593. For the same molecule, the “intracellular PykF activity” value ([7]; LB medium) was “highest activity” and the “intracellular PykF activity” value ([7]; M9 with 1% glucose) was “highest PykF activity”.

`CC(=O)SCCNC(=O)CCNC(=O)[C@H](O)C(C)(C)COP(=O)(O)OP(=O)(O)OC[C@H]1O[C@@H](n2cnc3c(N)ncnc32)[C@H](O)[C@@H]1OP(=O)(O)O` [acetyl-CoA, Acetyl coenzyme A, reference compound] was tested, and the Kd [3] was 5.57 µM and the “binding (Bin)” value [3] was “Binding”.

In the case of PykF^K382Q, the growth ([5]; LB medium) is reported as “grew the slowest”, the growth ([5]; M9 with 1% glucose) is reported as “grew slowest” and the “enzymatic activity vs wild type” value [6] is reported as “significantly decreased”. The “Relative activity of PykF” value [7, 10] was 0.52, the “Relative activity of PykF” value [7, 11] was 0.47 and the “Relative activity of PykF” value [7, 12] was 0.58. The “Relative activity of PykF” value [7, 13] was 0.4941, the “Relative activity of PykF” value [7, 14] was 0.4204 and the “intracellular PykF activity” value ([7]; LB medium) was “lowest activity”. The “intracellular PykF activity” value ([7]; M9 with 1% glucose) was “lowest PykF activity”.

B1: PncB^K381Q (protein, UniProt P18133 2-400, looked up, variant K381Q)
Nicotinate …: TQFASPVLHSLLDTDAYKLHMQQAVFHHYYDVHVAAEFRCRGDDLLGIYADAIREQVQAMQHLRLQDDEYQWLSALPFFKADYLNWLREFRFNPEQVTVSNDNGKLDIRLSGPWREVILWEVPLLAVISEMVHRYRSPQADVAQALDTLESKLVDFSALTAGLDMSRFHLMDFGTRRRFSREVQETIVKRLQQESWFVGTSNYDLARRLSLTPMGTQAHEWFQAHQQISPDLANSQRAALAAWLEEYPDQLGIALTDCITMDAFLRDFGVEFASRYQGLRHDSGDPVEWGEKAIAHYEKLGIDPQSKTLVFSDNLDLRKAVELYRHFSSRVQLSFGIGTRLTCDIPQVKPLNIVIKLVECNGKPVAKLSDSPGKTICHDQAFVRALRKAFDLPHIKKAS
In the case of B1, the “enzymatic activity vs wild type” value [8] is reported as “significantly decreased”, the “Residual percentage of reaction” value ([8]; replicate 1, relative to C) is reported as 0.3998 and the “Determination of nicotinic acid” value [8, 15] is reported as 117663852. The “Determination of nicotinic acid” value ([8]; replicate 2) was 149776081, the “Residual percentage of reaction” value ([8]; replicate 2, relative to C) was 0.4956 and the “Determination of nicotinic acid” value ([8]; replicate 3) was 106239984. The “Residual percentage of reaction” value ([8]; replicate 3, relative to C) was 0.3796.

B2: PncB: nicotinate phosphoribosyltransferase, wild type (protein, UniProt P18133 2-400, looked up)
Nicotinate …: B1 Nicotinate … with Q380K
With B2 the “Residual percentage of reaction” value ([8]; replicate 1, relative to C) was 0.08118, the “Determination of nicotinic acid” value [8, 15] was 23891965 and the “Determination of nicotinic acid” value ([8]; replicate 2) was 25485329. The “Residual percentage of reaction” value ([8]; replicate 2, relative to C) was 0.08433, the “Determination of nicotinic acid” value ([8]; replicate 3) was 18539215 and the “Residual percentage of reaction” value ([8]; replicate 3, relative to C) was 0.06624.

B3: PncB^K381R (protein, UniProt P18133 2-400, looked up, variant K381R)
Nicotinate …: B1 Nicotinate … with Q380R
B3 was tested, and the “enzymatic activity vs wild type” value [8] was “increased”, the “Residual percentage of reaction” value ([8]; replicate 1, relative to C) was 0.01962 and the “Determination of nicotinic acid” value [8, 15] was 5775041. For the same molecule, the “Determination of nicotinic acid” value ([8]; replicate 2) was 6028387, the “Residual percentage of reaction” value ([8]; replicate 2, relative to C) was 0.01995 and the “Determination of nicotinic acid” value ([8]; replicate 3) was 5793798. The “Residual percentage of reaction” value ([8]; replicate 3, relative to C) was 0.0207.

B4: Acs: acetyl-CoA synthetase (protein, UniProt P27550 1-652, looked up)
Acetyl-coenzyme A synthetase: MSQIHKHTIPANIADRCLINPQQYEAMYQQSINVPDTFWGEQGKILDWIKPYQKVKNTSFAPGNVSIKWYEDGTLNLAANCLDRHLQENGDRTAIIWEGDDASQSKHISYKELHRDVCRFANTLLELGIKKGDVVAIYMPMVPEAAVAMLACARIGAVHSVIFGGFSPEAVAGRIIDSNSRLVITSDEGVRAGRSIPLKKNVDDALKNPNVTSVEHVVVLKRTGGKIDWQEGRDLWWHDLVEQASDQHQAEEMNAEDPLFILYTSGSTGKPKGVLHTTGGYLVYAALTFKYVFDYHPGDIYWCTADVGWVTGHSYLLYGPLACGATTLMFEGVPNWPTPARMAQVVDKHQVNILYTAPTAIRALMAEGDKAIEGTDRSSLRILGSVGEPINPEAWEWYWKKIGNEKCPVVDTWWQTETGGFMITPLPGATELKAGSATRPFFGVQPALVDNEGNPLEGATEGSLVITDSWPGQARTLFGDHERFEQTYFSTFKNMYFSGDGARRDEDGYYWITGRVDDVLNVSGHRLGTAEIESALVAHPKIAEAAVVGIPHNIKGQAIYAYVTLNHGEEPSPELYAEVRNWVRKEIGPLATPDVLHWTDSLPKTRSGKIMRRILRKIAAGDTSNLGDTSTLADPGVVEKLLEEKQAIAMPS
B4 was tested, and the “formation of lactyl-CoA from lactate” value [9] was “neither Acs nor PrpE could catalyze the formation of lactyl-CoA from lactate”.
